B1: chymase C22S/F41R/L99G/G151T/F173Y/Y215R/R217M/A226R (enzyme)
chain: IIGGTESKPHSRPYMAYLEIVTSNGPSKRCGGFLIRRNFVLTAAHCAGRSITVTLGAHNITEEEDTWQKLEVIKQFRHPKYNTSTGHHDIMLLKLKEKASLTLAVGTLPFPSQFNFVPPGRMCRVAGWGRTGVLKPTSDTLQEVKLRLMDPQACSHYRDFDHNLQLCVGNPRKTKSAFKGDSGGPLLCAGVAQGIVSRGMSDAKPPRVFTRISHYRPWINQILQAN
B2: chymase C22S/F41R/L99Y/G151T/F173K/R217S/A226R (enzyme)
chain: B1 chain with G86Y, Y157K, R198Y, M200S
B3: chymase C22S/F41V/L99W/G151L/F173K/R217S/A226R (enzyme)
chain: B1 chain with R29V, G86W, T137L, Y157K, R198Y, M200S
B4: chymase C22S/K192R/A226R (enzyme)
chain: B1 chain with R29F, G86L, T137G, Y157F, K179R, R198Y, M200R
B5: chymase C22S/F41V/L99F/G151R/F173K/R217S/A226R (enzyme)
chain: B1 chain with R29V, G86F, T137R, Y157K, R198Y, M200S
B6: chymase F41V/L99H/G151V/F173Y/Y215K/R217G/A226R (enzyme)
chain: B1 chain with S7C, R29V, G86H, T137V, R198K, M200G
B7: chymase C22S/F41I/L99W/G151L/F173K/R217S/A226R (enzyme)
chain: B1 chain with R29I, G86W, T137L, Y157K, R198Y, M200S
B8: chymase C22S (enzyme)
chain: B1 chain with R29F, G86L, T137G, Y157F, R198Y, M200R, R207A
B9: chymase C22S/F41V/L99H/G151R/F173L/Y215R/R217T/A226R (enzyme)
chain: B1 chain with R29V, G86H, T137R, Y157L, M200T
B10: chymase C22S/A226R (enzyme)
chain: B1 chain with R29F, G86L, T137G, Y157F, R198Y, M200R
B11: chymase C22S/F41R/L99H/G151T/F173Y/Y215K/R217M/A226R (enzyme)
chain: B1 chain with G86H, R198K
B12: chymase C22S/L99H/F173I/K192R/Y215K/R217T/S218I/A226R (enzyme)
chain: B1 chain with R29F, G86H, T137G, Y157I, K179R, R198K, M200T, S201I
B13: chymase C22S/V138L/A226R (enzyme)
chain: B1 chain with R29F, G86L, V125L, T137G, Y157F, R198Y, M200R
B14: chymase C22S/S189T/A226R (enzyme)
chain: B1 chain with R29F, G86L, T137G, Y157F, S176T, R198Y, M200R
B15: chymase C22S/F173Y/A226R (enzyme)
chain: B1 chain with R29F, G86L, T137G, R198Y, M200R
B16: chymase C22S/L160V/S189T/A226R (enzyme)
chain: B1 chain with R29F, G86L, T137G, L146V, Y157F, S176T, R198Y, M200R
B17: chymase C22S/S218I/A226R (enzyme)
chain: B1 chain with R29F, G86L, T137G, Y157F, R198Y, M200R, S201I
B18: chymase C22S/L99H/F173Y/K192R/S218L/A226R (enzyme)
chain: B1 chain with R29F, G86H, T137G, K179R, R198Y, M200R, S201L
B19: chymase C22S/F173Y/D175N/A226R (enzyme)
chain: B1 chain with R29F, G86L, T137G, D159N, R198Y, M200R
B20: chymase C22S/L99Y/F173Y/K192R/S218L/A226R (enzyme)
chain: B1 chain with R29F, G86Y, T137G, K179R, R198Y, M200R, S201L

20 molecules from patent US20240117334A1, “FACTOR B PROTEASES” (Vertex Pharmaceuticals Incorporated, priority 2021, published 2024) can be followed below.

Positions count from the first letter of the chain named. In names and notes the source's numbering stands.

The first test deals with EGVD/AE-ACT. Nature of the test: reaction of the protease with the serpin bait EGVD/AE-ACT.
The molecule B1 displayed a k*app (second order rate constant) of 773.

With B2, the k*app (second order rate constant) turned out to be 684. The same measure, in the same setting: the value for B3 was 1360; that for B4 was 147. Same read-out and setting: the value for B5 was 652; that for B6 was 649; that for B7 was 1730. Molecule B8 registered a k*app (second order rate constant) of 30.2. On the same count and under the same terms, the value for B9 was 1130; that for B10 was 77; that for B11 was 1500. Same read-out and setting: the value for B12 was 1040.

Another test deals with Human Factor B (human) (UniProt P00751). In words: cell-based or functional assay.
Sequence of Human Factor B (human) (P00751 26-764 limits assumed): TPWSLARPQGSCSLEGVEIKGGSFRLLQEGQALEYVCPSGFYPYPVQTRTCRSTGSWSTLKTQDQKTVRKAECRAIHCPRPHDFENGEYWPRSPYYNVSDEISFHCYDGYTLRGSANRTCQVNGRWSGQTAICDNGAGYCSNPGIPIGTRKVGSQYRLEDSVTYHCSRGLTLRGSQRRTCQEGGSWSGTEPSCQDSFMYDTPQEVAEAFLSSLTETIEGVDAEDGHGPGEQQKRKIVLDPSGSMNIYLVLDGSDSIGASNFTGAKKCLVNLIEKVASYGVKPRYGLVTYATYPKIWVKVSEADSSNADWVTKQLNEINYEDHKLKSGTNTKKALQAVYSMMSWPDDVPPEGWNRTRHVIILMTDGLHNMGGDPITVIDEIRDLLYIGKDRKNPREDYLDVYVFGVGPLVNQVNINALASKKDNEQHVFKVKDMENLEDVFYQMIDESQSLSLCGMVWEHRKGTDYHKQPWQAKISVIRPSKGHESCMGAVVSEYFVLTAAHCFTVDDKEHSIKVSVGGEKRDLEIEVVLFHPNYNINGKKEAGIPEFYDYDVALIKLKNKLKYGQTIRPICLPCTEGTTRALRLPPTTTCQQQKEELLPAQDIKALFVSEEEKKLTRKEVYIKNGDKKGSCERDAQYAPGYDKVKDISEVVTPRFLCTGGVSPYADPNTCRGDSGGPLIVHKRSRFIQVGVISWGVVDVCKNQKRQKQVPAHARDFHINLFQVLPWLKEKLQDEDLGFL
For B13, the fB Cleavage EC50 turned out to be 3.48 µM. Same read-out and setting: the value for B14 was 7.98 µM. With B15, the fB Cleavage EC50 turned out to be 0.65 µM and the fB Cleavage, 80% plasma EC50 is 21 µM.

For B16, the fB Cleavage EC50 is 6.64 µM.

B17: the fB Cleavage EC50 is 0.83 µM.

For a further test, the target named is alpha-2-marcroglobin (A2M) (UniProt P01023). Nature of the test: inhibition of the protease by the plasma inhibitor.
Sequence of alpha-2-marcroglobin (A2M) (P01023 24-1474): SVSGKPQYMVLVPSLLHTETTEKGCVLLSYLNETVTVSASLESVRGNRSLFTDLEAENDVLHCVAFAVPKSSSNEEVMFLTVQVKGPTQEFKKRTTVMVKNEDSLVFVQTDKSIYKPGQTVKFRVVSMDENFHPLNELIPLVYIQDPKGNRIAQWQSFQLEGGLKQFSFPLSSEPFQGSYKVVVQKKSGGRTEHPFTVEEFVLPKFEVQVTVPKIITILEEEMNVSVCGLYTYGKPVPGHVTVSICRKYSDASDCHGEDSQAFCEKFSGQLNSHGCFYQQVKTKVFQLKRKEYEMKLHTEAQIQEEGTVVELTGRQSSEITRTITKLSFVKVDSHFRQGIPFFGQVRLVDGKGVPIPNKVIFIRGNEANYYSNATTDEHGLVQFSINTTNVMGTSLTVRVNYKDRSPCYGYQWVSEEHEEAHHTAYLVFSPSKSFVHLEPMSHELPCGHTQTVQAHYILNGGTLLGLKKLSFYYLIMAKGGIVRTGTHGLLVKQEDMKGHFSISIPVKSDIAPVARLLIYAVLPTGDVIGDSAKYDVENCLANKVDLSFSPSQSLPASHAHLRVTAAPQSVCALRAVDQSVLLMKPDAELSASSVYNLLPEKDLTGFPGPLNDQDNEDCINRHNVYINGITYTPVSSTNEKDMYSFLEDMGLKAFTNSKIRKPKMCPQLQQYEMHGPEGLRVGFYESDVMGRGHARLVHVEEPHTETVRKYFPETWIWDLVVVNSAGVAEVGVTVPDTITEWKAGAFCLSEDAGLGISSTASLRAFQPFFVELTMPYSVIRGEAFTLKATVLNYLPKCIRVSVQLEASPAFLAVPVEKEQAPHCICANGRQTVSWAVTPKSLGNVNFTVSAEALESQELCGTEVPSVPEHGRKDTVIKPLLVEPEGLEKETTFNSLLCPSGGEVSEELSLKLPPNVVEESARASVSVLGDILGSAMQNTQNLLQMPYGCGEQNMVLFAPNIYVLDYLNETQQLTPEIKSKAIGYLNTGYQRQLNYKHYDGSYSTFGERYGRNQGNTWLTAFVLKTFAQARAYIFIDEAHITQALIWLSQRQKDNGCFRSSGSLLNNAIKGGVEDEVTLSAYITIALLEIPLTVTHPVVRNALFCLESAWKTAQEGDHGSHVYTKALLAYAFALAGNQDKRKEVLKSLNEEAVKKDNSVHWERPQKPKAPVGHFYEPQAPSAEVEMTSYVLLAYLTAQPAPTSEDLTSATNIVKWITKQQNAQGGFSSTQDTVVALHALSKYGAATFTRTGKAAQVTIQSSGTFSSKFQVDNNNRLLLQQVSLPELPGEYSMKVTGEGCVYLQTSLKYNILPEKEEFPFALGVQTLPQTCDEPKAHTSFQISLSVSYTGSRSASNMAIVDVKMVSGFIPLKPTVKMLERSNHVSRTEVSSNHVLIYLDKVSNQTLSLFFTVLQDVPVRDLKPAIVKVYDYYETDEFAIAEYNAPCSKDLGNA
B3 had a kapp of 329 M⁻¹ s⁻¹. For B18, the kapp came out at 356 M⁻¹ s⁻¹. B19 showed a kapp of 645 M⁻¹ s⁻¹. In the case of B20, the kapp is 3130 M⁻¹ s⁻¹. The same measure, in the same setting: the figure for B10 is 812 M⁻¹ s⁻¹.
